Results as given in PMC3728621, “Structural analysis of autoinhibition in the Ras-specific exchange factor RasGRP1” (eLife, 2013).

Legend:
[1] = target: the molecule itself; assay: crystal structure; RasGRP1^CEC at 3.0 Å; hanging drop, 0.15 M sodium citrate tribasic, 22% PEG 3350, 1 mM MnCl2, 20°C; dimer generated by a crystallographic twofold axis
[2] = target: the molecule itself; assay: multiangle light scattering; RasGRP1^CC in solution, 30 μM to 1.5 mM monomer; data not shown

Protein	binding result [1]	stoichiometry N [2]
RasGRP1^CEC (human Ras guanine nucleotide releasing protein 1, residues 50-607: REM, Cdc25, EF and C1 domains) (domain or fragment, UniProt O95267 50-607, looked up, human RasGRP1 (full length 797 residues), residues 50-607, spanning the REM, Cdc25, EF and C1 domains; Crystallographic dimer; In gel filtration it forms dimers and higher order oligomers, depending on concentration; The structural model spans residues 53-593; 186-192 and 437-448 are not modelled; source: E. coli BL21(DE3), purified (HisTrap, tag removal with ULP1, second HisTrap, Superdex gel …)) MVSLGHLAKGASLDDLIDSCIQSFDADGNLCRSNQLLQVMLTMHRIVISSAELLQKVITLYKDALAKNSPGLCLKICYFVRYWITEFWVMFKMDASLTDTMEEFQELVKAKGEELHCRLIDTTQINARDWSRKLTQRIKSNTSKKRKVSLLFDHLEPEELSEHLTYLEFKSFRRISFSDYQNYLVNSCVKENPTMERSIALCNGISQWVQLMVLSRPTPQLRAEVFIKFIQVAQKLHQLQNFNTLMAVIGGLCHSSISRLKETSSHVPHEINKVLGEMTELLSSSRNYDNYRRAYGECTDFKIPILGVHLKDLISLYEAMPDYLEDGKVNVHKLLALYNHISELVQLQEVAPPLEANKDLVHLLTLSLDLYYTEDEIYELSYAREPRNHRAPPLTPSKPPVVVDWASGVSPKPDPKTISKHVQRMVDSVFKNYDHDQDGYISQEEFEKIAASFPFSFCVMDKDREGLISRDEITAYFMRASSIYSKLGLGFPHNFQETTYLKPTFCDNCAGFLWGVIKQGYRCKDCGMNCHKQCKDLVVFECKKRAKNPVAPTENNTS	binds	–
RasGRP1^CC (human RasGRP1 C-terminal coiled coil, residues 739-793) (domain or fragment, UniProt O95267 739-793, looked up, human RasGRP1 (full length 797 residues), residues 739-793, containing the predicted coiled coil (747-789); Parallel dimeric coiled coil; The model holds residues 745-793 (molecule A) and 745-786 (molecule B); also called C-terminal oligomerization domain; source: E. coli BL21(DE3), purified (HisTrap, tag removal with ULP1, second HisTrap, Superdex gel filtration); not shown: His6, N-terminal, …) ELRHLRLPTYQELEQEINTLKADNDALKIQLKYAQKKIESLQLEKSNHVLAQMEQ	–	2
